According to patent US20220072157:

Target: C3b, P01024
Sequence (P01024 whole entry, looked up): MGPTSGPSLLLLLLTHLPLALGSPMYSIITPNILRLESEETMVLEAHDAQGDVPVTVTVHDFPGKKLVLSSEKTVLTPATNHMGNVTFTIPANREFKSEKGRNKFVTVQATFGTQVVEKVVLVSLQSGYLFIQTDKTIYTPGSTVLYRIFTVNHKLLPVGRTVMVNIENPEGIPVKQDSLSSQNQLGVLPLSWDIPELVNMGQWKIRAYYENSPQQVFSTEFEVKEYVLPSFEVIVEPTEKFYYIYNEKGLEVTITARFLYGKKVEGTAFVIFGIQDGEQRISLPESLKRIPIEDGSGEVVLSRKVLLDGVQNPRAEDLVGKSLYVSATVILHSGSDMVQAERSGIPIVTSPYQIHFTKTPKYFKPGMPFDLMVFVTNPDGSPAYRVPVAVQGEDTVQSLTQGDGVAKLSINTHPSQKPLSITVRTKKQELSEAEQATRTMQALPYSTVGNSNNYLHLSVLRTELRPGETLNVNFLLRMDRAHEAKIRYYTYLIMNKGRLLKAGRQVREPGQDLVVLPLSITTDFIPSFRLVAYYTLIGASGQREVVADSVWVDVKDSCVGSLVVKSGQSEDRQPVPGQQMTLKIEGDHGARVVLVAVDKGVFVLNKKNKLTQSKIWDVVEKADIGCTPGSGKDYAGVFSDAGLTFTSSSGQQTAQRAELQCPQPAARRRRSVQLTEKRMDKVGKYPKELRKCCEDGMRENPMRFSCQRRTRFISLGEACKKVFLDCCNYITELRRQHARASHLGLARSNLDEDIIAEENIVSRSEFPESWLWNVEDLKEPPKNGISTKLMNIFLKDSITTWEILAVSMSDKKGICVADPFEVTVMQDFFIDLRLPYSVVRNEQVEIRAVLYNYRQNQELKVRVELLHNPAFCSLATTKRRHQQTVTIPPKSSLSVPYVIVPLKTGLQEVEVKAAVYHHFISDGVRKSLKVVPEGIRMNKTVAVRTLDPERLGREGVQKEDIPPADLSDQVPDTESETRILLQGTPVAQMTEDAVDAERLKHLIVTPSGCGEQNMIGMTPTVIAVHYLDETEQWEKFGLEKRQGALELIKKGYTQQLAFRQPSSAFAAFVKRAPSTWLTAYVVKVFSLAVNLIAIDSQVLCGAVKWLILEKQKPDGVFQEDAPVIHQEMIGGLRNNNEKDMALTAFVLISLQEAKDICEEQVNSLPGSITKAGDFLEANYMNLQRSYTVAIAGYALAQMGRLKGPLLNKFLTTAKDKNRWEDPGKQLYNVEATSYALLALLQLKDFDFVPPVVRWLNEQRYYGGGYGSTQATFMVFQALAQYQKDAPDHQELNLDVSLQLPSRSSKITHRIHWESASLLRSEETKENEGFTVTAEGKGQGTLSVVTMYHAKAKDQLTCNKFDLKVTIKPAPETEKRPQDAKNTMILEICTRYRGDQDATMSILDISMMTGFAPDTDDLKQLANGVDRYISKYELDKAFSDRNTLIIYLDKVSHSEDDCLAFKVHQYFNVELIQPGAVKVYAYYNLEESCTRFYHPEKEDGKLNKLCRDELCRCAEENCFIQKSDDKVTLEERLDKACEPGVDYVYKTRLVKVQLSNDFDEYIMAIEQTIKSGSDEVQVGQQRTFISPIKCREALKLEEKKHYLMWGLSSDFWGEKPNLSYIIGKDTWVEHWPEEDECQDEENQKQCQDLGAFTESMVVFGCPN

B1: Complement Factor I (CFI) (protein)
chain: KVTYTSQEDLVEKKCLAKKYTHLSCDKVFCQPWQRCIEGTCVCKLPYQCPKNGTAVCATNRRSFPTYCQQKSLECLHPGTKFLNNGTCTAEGKFSVSLKHGNTDSEGIVEVKLVDQDKTMFICKSSWSMREANVACLDLGFQQGADTQRRFKLSDLSINSTECLHVHCRGLETSLAECTFTKRRTMGYQDFADVVCYTQKADSPMDDFFQCVNGKYISQMKACDGINDCGDQSDELCCKACQGKGFHCKSGVCIPSQYQCNGEVDCITGEDEVGCAGFASVTQEETEILTADMDAERRRIKSLLPKLSCGVKNRMHIRRKRIVGGKRAQLGDLPWQVAIKDASGITCGGIYIGGCWILTAAHCLRASKTHRYQIWTTVVDWIHPDLKRIVIEYVDRIIFHENYNAGTYQNDIALIEMKKDGNKKDCELPRSIPACVPWSPYLFQPNDTCIVSGWGREKDNERVFSLQWGEVKLISNCSKFYGNRFYEKEMECAGTYDGSIDACKGDSGGPLVCMDANNVTYVWGVVSWGENCGKPEFPGVYTKVANYFDWISYHVGRPFISQYNV
cleavage of C3b to iC3b quantified by ELISA (cofactor assay; CFI and C3b fixed, CFH or FHL1 titrated): a minimum functional CFI:CFH/FHL1 molar ratio is 1:2
